Legend:
human properdin [1] = biological target: T1, human properdin (human, UniProt P27918 28-469); experiment: cell-based or functional assay
human properdin [2] = biological target: T1, human properdin; experiment: ELISA, properdin coated on the plate, OD 450 nm
human properdin [3] = biological target: T1, human properdin; experiment: properdin binding assay (method of Example 8, not restated)
human properdin [4] = biological target: T1, human properdin; experiment: cell-based or functional assay; remark: listed apart in the source
human properdin [5] = biological target: T1, human properdin; experiment: ELISA, properdin coated on the plate, OD 450 nm; remark: listed apart in the source
human properdin [6] = biological target: T1, human properdin; experiment: cell-based or functional assay; remark: listed apart in the source
human properdin [7] = biological target: T1, human properdin; experiment: ELISA, human properdin coated on the plate, OD 450 nm
Description: (§1) Polystyrene microtiter plates were coated with human (2.0 μg/50 μl per well) properdin in phosphate buffered saline (PBS) overnight at 4° C. After aspirating the properdin solution, the wells were blocked with PBS containing 1% bovine serum albumin (BSA) (Sigma-Aldrich, St. Louis, Mo.) for 2 hours at room temperature. Wells without peptide or properdin coating served as background controls. Aliquots of the test antibody in blocking solution were added to the properdin coated wells and allowed to incubate for 1 hour to allow binding to occur. Following a 1 hour incubation at room temperature, the plate was rinsed with PBS five times and incubated with 1:2000 diluted anti-properdin polyclonal antibody.

human properdin [8] = biological target: T1, human properdin; experiment: ELISA, human properdin coated on plate
Description: as §1

human properdin [9] = biological target: T1, human properdin; experiment: cell-based or functional assay; remark: listed apart in the source
human properdin [10] = biological target: T1, human properdin; experiment: cell-based or functional assay; remark: listed apart in the source

T1 sequence (P27918 28-469 limits assumed): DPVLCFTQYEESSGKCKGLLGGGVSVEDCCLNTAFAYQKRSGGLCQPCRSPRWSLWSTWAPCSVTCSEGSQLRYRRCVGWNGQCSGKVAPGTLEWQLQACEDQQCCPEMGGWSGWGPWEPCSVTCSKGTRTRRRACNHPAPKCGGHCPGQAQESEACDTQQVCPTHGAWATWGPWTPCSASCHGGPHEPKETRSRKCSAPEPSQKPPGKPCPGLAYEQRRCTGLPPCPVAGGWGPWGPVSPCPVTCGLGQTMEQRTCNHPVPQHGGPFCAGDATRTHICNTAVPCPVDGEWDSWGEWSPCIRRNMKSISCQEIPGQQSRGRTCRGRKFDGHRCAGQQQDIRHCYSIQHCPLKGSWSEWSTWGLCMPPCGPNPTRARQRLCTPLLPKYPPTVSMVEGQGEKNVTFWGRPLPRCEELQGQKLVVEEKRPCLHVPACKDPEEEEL

Binder	C3b (µg/mL); inhibition of AP mediated C3b formation and deposition (human properdin [1]) [µg/mL]	MAC (µg/mL); inhibition of MAC formation (human properdin [1]) [µg/mL]	EC50 (read off the curve) (human properdin [2]) [nM]	Affinity (human properdin [3]) [pM]	IC50 (read off the curve): C3b deposition (sheet title: LPS C3b 10% NHS) (human properdin [4]) [µg/mL]	other results
NMT17-100 (antibody, V domains shown) VH: EVQLVQSGAEVKKPGASVKVSCKASGYIFTNYPIHWVRQAPGQGLEWMGFIDPGGGYDEPDERFRDRVTMTADTSTSTAYMELSSLRSEDTAVYYCARRGGGYYLDYWGQGTTVTVSS VL: DIQMTQSPSSLSASVGDRVTITCRASQDISFFLNWYQQKPGKAPKLLIYYTSRYHSGVPSRFSGSGSGTDFTLTISSLQPEDFATYYCQHGSTLPWTFGQGTKLEIK	1	1	~0.3	263	~0.4	–
NMT18-100 (antibody, V domains shown) VH: EVQLVQSGAEVKKPGASVKVSCKASGYIFTNYPIHWVRQAPGQGLEWMGFIDPGGGYDEPDERFRDRVTMTADTSTSTAYMELSSLRSEDTAVYYCARRGGGYYLDYWGQGTTVTVSS VL: DIQMTQSPSSLSASVGDRVTITCRASQDISFFLNWYQQKPGKAPKLLIYYTSRYHSGVPSRFSGSGSGTDFTLTISSLQPEDFATYYCQHGQTLPWTFGQGTKLEIK	1	1	0.3 to 0.4	322	~0.5	–
NMT24 (antibody, V domains shown) VH: EVQLVQSGAEVKKPGASVKVSCKASGYIFTNYPIHWVRQAPGKGLEWMGFIDPGGGHDEYADSVKGRVTMTRDTSTSTVYMELSSLRSEDTAVYYCARRGGGYYLDYWGQGTLVTVSS VL: DIQMTQSPSSLSASVGDRVTITCRASQDISFFLNWYQQKPGKAPKLLIYGASSYHSGVPSRFSGSGSGTDFTLTISSLQPEDFATYYCQHGQTLPRTFGQGTKVEIK	–	–	–	–	–	binding result (human properdin [5]): no binding (tested: about 13 nM)
NMT23 (antibody, V domains shown) VH: EVQLVQSGAEVKKPGASVKVSCKASGYIFTNYPIHWVRQAPGKGLEWMGFIDPGGGHDEYADSVKGRVTMTRDTSTSTVYMELSSLRSEDTAVYYCARRGGGYYLDYWGQGTLVTVSS VL: DIQMTQSPSSLSASVGDRVTITCRASQDISFFLNWYQQKPGKAPKLLIYYTSRYHSGVPSRFSGSGSGTDFTLTISSLQPEDFATYYCQHGSTLPWTFGQGTKVEIK	–	–	–	–	–	EC50 (read off the curve) (human properdin [5]): ~0.2 nM
NMT18-101 (antibody, V domains shown) VH: EVQLVQSGAEVKKPGASVKVSCKASGYIFTNYPIHWVRQAPGQGLEWMGFIDPGGGYDEPDERFRDRVTMTADTSTSTAYMELSSLRSEDTAVYYCARRGGGYYLDYWGQGTTVTVSS VL: DIQMTQSPSSLSASVGDRVTITCRASQDISFFLNWYQQKPGKAPKLLIYYTSRYHSGVPSRFSGSGSGTDFTLTISSLQPEDFATYYCQHGQTLPWTFGQGTKLEIK	1	3	~0.6	590	~0.5	–
NMT26 (antibody, V domains shown) VH: EVQLVESGGGLVQPGRSLRLSCAASGYIFTNYPIHWVRQAPGKGLEWVSFIDPGGGHIDYADSVEGRFTISRDNAKNSLYLQMNSLRAEDTAVYYCAKRGGGYYLDYWGQGTLVTVSS VL: DIQMTQSPSSLSASVGDRVTITCRASQDISFFLNWYQQKPGKAPKLLIYYTSRYHSGVPSRFSGSGSGTDFTLTISSLQPEDVATYYCQHGSTLPYTFGQGTKVEIK	–	–	–	–	–	binding result (human properdin [5]): no binding (tested: about 13 nM)
NMT28-101 (antibody, V domains shown) VH: EVQLVQSGAEVKKPGASVKVSCKASGYIFTNYPIHWVRQAPGQGLEWMGFIDPGGGYDEPDERFRDRVTMTADTSTSTAYMELSSLRSEDTAVYYCARRGGGYYLDYWGQGTLVTVSS VL: DIQMTQSPSSLSASVGDRVTITCRASQDISFFLNWYQQKPGKAPKLLIYYTSRYHSGVPSRFSGSGSGTDFTLTISSLQPEDFATYYCQHGQTLPWTFGQGTKVEIK	1	3	~0.4	425	~0.5	–
NMT28-100 (antibody, V domains shown) VH: EVQLVQSGAEVKKPGASVKVSCKASGYIFTNYPIHWVRQAPGQGLEWMGFIDPGGGYDEPDERFRDRVTMTADTSTSTAYMELSSLRSEDTAVYYCARRGGGYYLDYWGQGTLVTVSS VL: DIQMTQSPSSLSASVGDRVTITCRASQDISFFLNWYQQKPGKAPKLLIYYTSRYHSGVPSRFSGSGSGTDFTLTISSLQPEDFATYYCQHGQTLPWTFGQGTKVEIK	1	3	0.3 to 0.4	318	~0.5	–
NMT22 (antibody, V domains shown) VH: EVQLVQSGAEVKKPGASVKVSCKASGYIFTNYPIHWVRQAPGQGLEWMGFIDPGGGYDESAQKFRGRVTLTADTSTSTVYMELSSLRSEDTAVYYCARRGGGYYLDYWGQGTTLTVSS VL: DIQMTQSPSSLSASVGDRVTITCRASQDISFFLNWYQQKPGKAPKLLIYYTSRYHSGVPSRFSGSGSGTDFTLTISSLQPEDFATYYCQHGSTLPYTFGQGTKLEIK	–	–	–	–	–	IC50 (read off the curve): properdin deposition (AP activation on LPS, 10% normal human serum) (human properdin [6]): ~9 µg/mL; EC50 (read off the curve) (human properdin [7]): 0.3 to 0.4 nM; Binding Affinity (human properdin [8]): 335 pM
NMT27 (antibody, V domains shown) VH: EVQLVQSGAEVKKPGASVKVSCKASGYIFTNYPIHWVRQAPGKGLEWMGFIDPGGGYDEPDERFRDRVTMTRDTSTSTVYMELSSLRSEDTAVYYCARRGGGYYLDYWGQGTLVTVSS VL: DIQMTQSPSSLSASVGDRVTITCRASQDISFFLNWYQQKPGKAPKLLIYYTSRYHSGVPSRFSGSGSGTDFTLTISSLQPEDFATYYCQHGSTLPRTFGQGTKVEIK	–	–	–	–	–	binding result (human properdin [5]): binds
NMT20 (antibody, V domains shown) VH: EVQLVQSGAEVKKPGASVKVSCKASGYIFTNYPIHWVRQAPGQGLEWMGFIDPGGGYDEPDERFRDRVTMTADTSTSTAYMELSSLRSEDTAVYYCARRGGGYYLDYWGQGTTVTVSS VL: DIQMTQSPSSLSASVGDRVTITCRASQDISFFLNWYQQKPGKAPKLLIYYTSRYHSGVPSRFSGSGSGTDFTLTISSLQPEDFATYYCQHGSTLPYTFGQGTKLEIK	–	–	–	–	–	IC50 (read off the curve): properdin deposition (AP activation on LPS, 10% normal human serum) (human properdin [6]): ~1 µg/mL; EC50 (read off the curve) (human properdin [7]): ~0.3 nM; Binding Affinity (human properdin [8]): 297 pM; IC50 (read off the curve): C3b deposition (AP activation on LPS, normal human serum) (human properdin [9]): ~0.8 µg/mL; MAC (µg/Ml); inhibition of MAC formation (human properdin [10]): 25 µg/mL; Properdin (µg/mL); inhibition of properdin deposition (human properdin [10]): 30 µg/mL
NMT19 (antibody, V domains shown) VH: EVQLVQSGAEVKKPGASVKVSCKASGHIFTNYPIHWVRQAPGQGLEWMGFIDPGGGHDEPDERFRDRVTMTADTSTSTAYMELSSLRSEDTAVYYCARRGGGYYLDYWGQGTTVTVSS VL: DIQMTQSPSSLSASVGDRVTITCRASQDISFFLNWYQQKPGKAPKLLIYYTSRYHSGVPSRFSGSGSGTDFTLTISSLQPEDFATYYCQHGQTLPWTFGQGTKLEIK	–	–	–	–	–	IC50 (read off the curve): properdin deposition (AP activation on LPS, 10% normal human serum) (human properdin [6]): ~10 µg/mL; EC50 (read off the curve) (human properdin [7]): ~0.5 nM; Binding Affinity (human properdin [8]): 486 pM
NMT21 (antibody, V domains shown) VH: EVQLVQSGAEVKKPGASVKVSCKASGYIFTNYPIHWVRQAPGQGLEWMGFIDPGGGYDEYAQKFQGRVTLTADTSTSTAYMELSSLRSEDTAVYYCARRGGGYYLDYWGQGTTLTVSS VL: DIQMTQSPSSLSASVGDRVTITCRASQDISFFLNWYQQKPGKAPKLLIYYTSRYHSGVPSRFSGSGSGTDFTLTISSLQPEDFATYYCQHGQTLPWTFGQGTKLEIK	–	–	–	–	–	IC50 (read off the curve): properdin deposition (AP activation on LPS, 10% normal human serum) (human properdin [6]): ~1 µg/mL; EC50 (read off the curve) (human properdin [7]): 0.3 to 0.4 nM; Binding Affinity (human properdin [8]): 353 pM; IC50 (read off the curve): C3b deposition (AP activation on LPS, normal human serum) (human properdin [9]): ~0.5 µg/mL; MAC (µg/Ml); inhibition of MAC formation (human properdin [10]): 8 µg/mL; Properdin (µg/mL); inhibition of properdin deposition (human properdin [10]): 8 µg/mL
NMT17-101 (antibody, V domains shown) VH: EVQLVQSGAEVKKPGASVKVSCKASGYIFTNYPIHWVRQAPGQGLEWMGFIDPGGGYDEPDERFRDRVTMTADTSTSTAYMELSSLRSEDTAVYYCARRGGGYYLDYWGQGTTVTVSS VL: DIQMTQSPSSLSASVGDRVTITCRASQDISFFLNWYQQKPGKAPKLLIYYTSRYHSGVPSRFSGSGSGTDFTLTISSLQPEDFATYYCQHGSTLPWTFGQGTKLEIK	1	1	~0.5	499	~0.5	–

From patent publication US20230073274A1 (NOVELMED THERAPEUTICS, published 2023)
